Experimental data reported in FireProtDB (doi:10.1002/pro.5560060717).
Values joined by “and” are separate entries in the source; they are usually repeats but may differ in a detail not shown here. Equal entries are not always repeated.

B1: Gamma-crystallin B, P02526 (parent)
chain: MGKITFYEDRGFQGHCYECSSDCPNLQPYFSRCNSIRVDSGCWMLYERPNYQGHQYFLRRGDYPDYQQWMGFNDSIRSCRLIPQHTGTFRMRIYERDDFRGQMSEITDDCPSLQDRFHLTEVHSLNVLEGSWVLYEMPSYRGRQYLLRPGEYRRYLDWGAMNAKVGSLRRVMDFY

Variants of: B1
Conditions: Bos taurus; pH 2; 20 °C; Urea; Fluorescence; NaCl-HCl 100 mM; reversible: yes; structure 4GCR; whole UniProt chain shown

Question: With F57W as the variant, how does the “denaturant midpoint (higher = more stable)” value read?
Answer: 1.5 M and 4.2 M
